{"source": "paper PMC3534942", "about": "(Virology, 2012)", "molecules": {"B1": {"name": "HCMV gB706-CHis6 (HCMV strain AD169 glycoprotein B ectodomain, residues 25-706, C-terminal His6 tag) (domain or fragment)", "chain": "DPSSSTSHATSSTHNGSHTSRTTSAQTRSVYSQHVTSSEAVSHRANETIYNTTLKYGDVVGVNTTKYPYRVCSMAQGTDLIRFERNIICTSMKPINEDLDEGIMVVYKRNIVAHTFKVRVYQKVLTFRRSYAYIYTTYLLGSNTEYVAPPMWEIHHINKFAQCYSSYSRVIGGTVFVAYHRDSYENKTMQLIPDDYSNTHSTRYVTVKDQWHSRGSTWLYRETCNLNCMLTITTARSKYPYHFFATSTGDVVYISPFYNGTNRNASYFGENADKFFIFPNYTIVSDFGRPNAAPETHRLVAFLERADSVISWDIQDEKNVTCQLTFWEASERTIRSEAEDSYHFSSAKMTATFLSKKQEVNMSDSALDCVRDEAINKLQQIFNTSYNQTYEKYGNVSVFETSGGLVVFWQGIKQKSLVELERLANRSSLNITHRTRRSTSDNNTTHLSSMESVHNLVYAQLQFTYDTLRGYINRALAQIAEAWCVDQRRTLEVFKELSKINPSAILSAIYNKPIAARFMGDVLGLASCVTINQTSVKVLRDMNVKESPGRCYSRPVVIFNFANSSYVQYGQLGEDNEILLGNHRTEECQLPSLKIFIAGNSAYEYVDYLFKRMIDLSSISTVDSMIALDIDPLENTDFRVLELYSQKELRSSNVFDLEEIMREFNSYKQRVKYVEDKVVDPLPP"}, "B2": {"name": "HCMV gB706-4M (HCMV strain AD169 glycoprotein B ectodomain, residues 25-706, Y155G/I156H/Y157R/W240A) (domain or fragment)", "chain": "B1 chain with Y133G, I134H, Y135R, W218A", "modifications": "N-linked glycosylation (mass difference of 22.9 kDa suggested that all 18 predicted N-linked glycosylation sites were glycosylated)"}}, "key": {"[1]": {"molecular_target": "HSV-1 gB730 (HSV-1 glycoprotein B ectodomain) (HSV-1) (UniProt P06437)", "experiment": "SEC-MALS"}, "[2]": {"molecular_target": "the molecule itself", "experiment": "mildly denaturing SDS-PAGE"}, "[3]": {"molecular_target": "the molecule itself", "experiment": "SEC-MALS"}}, "note": "Numbering of substitutions follows the chain as printed. Names and notes keep the numbering of the source."}
{"molecule": "HSV-1 gB730 (HSV-1 glycoprotein B ectodomain) (from UniProt P06437 31-730) (domain or fragment)", "values": [{"measurement": "stoichiometry N", "setting": "[1]", "result": 3}]}
{"molecule": "B1", "values": [{"measurement": "binding result", "setting": "[2]", "result": "binds"}]}
{"molecule": "B2", "values": [{"measurement": "stoichiometry N", "setting": "[3]", "result": 3}]}
